Measured values published in article PMC4335047, “Interaction between the tRNA-Binding and C-Terminal Domains of Yeast Gcn2 Regulates Kinase Activity In Vivo” (PLoS Genetics, 2015).

How the values were obtained:
Test in all cases: pull-down; purified GST fusions (5 μg) immobilised on glutathione-Sepharose 4B beads; in vitro translated [35S]-HisRS(970–1497), partially purified by ammonium sulfate precipitation; buffer A, 4°C, 2 h; without or with increasing tRNA^Phe or a model mRNA; fluorography
Conditions in all cases: one partner purified
[1] = target: T1, GST-KD (Gcn2 residues 568–998) (S. cerevisiae, UniProt P15442 568-998)
T1 construct: Gcn2 of S. cerevisiae, kinase domain (KD), residues 568-998; a pGEX vector with the tac promoter points to E. coli; also called GST-GCN2(568–998); source: purified GST fusion (P tac, pGEX-5x-1); not shown: GST, N-terminal, kept

[2] = target: T2, GST-HisRS (Gcn2 residues 970–1497), wild type (S. cerevisiae, UniProt P15442 970-1497)
T2 construct: Gcn2 of S. cerevisiae, HisRS-related domain, residues 970-1497; also called WT GST-HisRS; GST-HisRS (970–1497); not shown: GST, N-terminal, kept
T2 sequence (looked up): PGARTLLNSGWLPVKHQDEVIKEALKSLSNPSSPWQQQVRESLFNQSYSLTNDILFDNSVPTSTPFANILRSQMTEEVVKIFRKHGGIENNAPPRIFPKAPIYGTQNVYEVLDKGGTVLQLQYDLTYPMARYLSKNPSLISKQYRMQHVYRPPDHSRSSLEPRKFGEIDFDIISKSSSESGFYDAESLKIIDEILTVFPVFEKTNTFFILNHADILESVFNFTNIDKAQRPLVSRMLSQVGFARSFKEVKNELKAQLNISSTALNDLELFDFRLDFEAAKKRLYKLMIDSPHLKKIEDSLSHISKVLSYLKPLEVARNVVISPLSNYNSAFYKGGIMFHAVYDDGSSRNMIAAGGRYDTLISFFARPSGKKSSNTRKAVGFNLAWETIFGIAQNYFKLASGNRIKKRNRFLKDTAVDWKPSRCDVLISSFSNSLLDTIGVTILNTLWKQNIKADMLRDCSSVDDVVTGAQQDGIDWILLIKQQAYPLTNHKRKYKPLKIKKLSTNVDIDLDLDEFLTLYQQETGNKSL

[3] = target: T3, GST-CTD (Gcn2 residues 1498–1659) (S. cerevisiae, UniProt P15442 1498-1659)
T3 construct: Gcn2 of S. cerevisiae, C-terminal domain (CTD), residues 1498-1659; a pGEX vector with the tac promoter points to E. coli; also called GST-GCN2(1498–1659); source: purified GST fusion (P tac, pGEX-5x-1); not shown: GST, N-terminal, kept
T3 sequence (looked up): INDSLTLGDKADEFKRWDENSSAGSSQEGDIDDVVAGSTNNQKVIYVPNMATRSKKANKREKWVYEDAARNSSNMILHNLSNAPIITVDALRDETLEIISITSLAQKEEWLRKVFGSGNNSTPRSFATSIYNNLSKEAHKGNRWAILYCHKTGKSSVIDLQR

T1 sequence (P15442 568-998): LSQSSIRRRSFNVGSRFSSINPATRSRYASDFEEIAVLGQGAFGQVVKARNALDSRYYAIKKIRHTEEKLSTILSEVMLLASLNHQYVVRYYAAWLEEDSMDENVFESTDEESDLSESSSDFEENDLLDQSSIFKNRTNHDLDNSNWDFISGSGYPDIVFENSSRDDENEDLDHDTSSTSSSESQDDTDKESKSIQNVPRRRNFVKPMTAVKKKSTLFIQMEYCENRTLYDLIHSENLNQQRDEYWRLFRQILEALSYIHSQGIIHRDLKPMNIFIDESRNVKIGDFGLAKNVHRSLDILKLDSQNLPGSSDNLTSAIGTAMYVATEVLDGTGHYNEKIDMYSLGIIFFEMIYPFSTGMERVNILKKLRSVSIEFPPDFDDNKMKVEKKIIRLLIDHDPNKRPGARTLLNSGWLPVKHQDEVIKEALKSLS

fold reduction of the pull-down on addition of tRNA^Phe [1]: ~1.8 fold | fold reduction of the pull-down on addition of tRNA^Phe [2]: ~2.1 fold | fold reduction of the pull-down on addition of tRNA^Phe [3]: ~5.4 fold
B1: [35S]-HisRS(970–1497) segment of Gcn2 (domain or fragment, S. cerevisiae, UniProt P15442 970-1497, looked up)
chain: PGARTLLNSGWLPVKHQDEVIKEALKSLSNPSSPWQQQVRESLFNQSYSLTNDILFDNSVPTSTPFANILRSQMTEEVVKIFRKHGGIENNAPPRIFPKAPIYGTQNVYEVLDKGGTVLQLQYDLTYPMARYLSKNPSLISKQYRMQHVYRPPDHSRSSLEPRKFGEIDFDIISKSSSESGFYDAESLKIIDEILTVFPVFEKTNTFFILNHADILESVFNFTNIDKAQRPLVSRMLSQVGFARSFKEVKNELKAQLNISSTALNDLELFDFRLDFEAAKKRLYKLMIDSPHLKKIEDSLSHISKVLSYLKPLEVARNVVISPLSNYNSAFYKGGIMFHAVYDDGSSRNMIAAGGRYDTLISFFARPSGKKSSNTRKAVGFNLAWETIFGIAQNYFKLASGNRIKKRNRFLKDTAVDWKPSRCDVLISSFSNSLLDTIGVTILNTLWKQNIKADMLRDCSSVDDVVTGAQQDGIDWILLIKQQAYPLTNHKRKYKPLKIKKLSTNVDIDLDLDEFLTLYQQETGNKSL
modifications: [35S]-methionine labeled
notes: Gcn2 of S. cerevisiae, HisRS-related domain, residues 970-1497; P T7-GCN2 (970–1497) in pGEM-3Z; also called [^35S]-methionine labeled HisRS fragment; [^35S]-HisRS domain fragments; source: in vitro translated (TNT T7 Coupled Reticulocyte Lysate System), partially purified by ammonium sulfate precipitation
